Results from publication PMC11666773, “Development of mirror-image monobodies targeting the oncogenic BCR::ABL1 kinase” (Nature Communications, 2024).
Non-standard residues stand in square brackets, D forms with d. *: point of attachment. 5FAM = O=C1OC2(c3ccc(O)cc3Oc3cc(O)ccc32)c2ccc(C(=O)*)cc21

Legend:
[1] = molecular target: T1, L-Abl SH2 domain (recombinant) (human); assay: ITC
T1 chain: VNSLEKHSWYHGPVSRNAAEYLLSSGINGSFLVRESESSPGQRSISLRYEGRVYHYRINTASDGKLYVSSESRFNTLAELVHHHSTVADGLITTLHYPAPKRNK

[2] = molecular target: T1, L-Abl SH2 domain (recombinant); assay: ITC; monobody in the syringe titrated to the SH2 domain, 20 mM HEPES pH 7.4, 150 mM NaCl, 0.5 mM TCEP-HCl, 25 °C, 1:1 binding model
[3] = molecular target: T2, D-Abl SH2 domain (synthetic mirror-image SH2 domain of human BCR::ABL1) (human, UniProt P00519-2 141-240, all residues in D-configuration); assay: fluorescence polarisation; direct binding of the fluorescent D-pY peptide to D-Abl SH2 (Fig. S1); conditions not shown; conditions: both partners purified
T2 construct: Mirror-image protein; also called D-Bcr-Abl SH2; D-SH2
T2 sequence: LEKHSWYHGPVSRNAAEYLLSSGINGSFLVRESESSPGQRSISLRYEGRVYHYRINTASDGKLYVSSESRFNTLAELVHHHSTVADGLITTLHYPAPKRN

[4] = molecular target: T3, D-Abl SH2 domain (synthetic mirror-image SH2 domain of human BCR::ABL1) (human, UniProt P00519-2 141-240, all residues in D-configuration); assay: ITC
T3 chain: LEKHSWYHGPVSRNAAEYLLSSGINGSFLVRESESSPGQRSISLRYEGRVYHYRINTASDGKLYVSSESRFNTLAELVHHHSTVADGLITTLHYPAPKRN

[5] = molecular target: D-Abl SH2 domain (synthetic mirror-image SH2 domain of human BCR::ABL1) (human) (UniProt P00519); assay: ITC; monobody in the syringe titrated to the SH2 domain, 20 mM HEPES pH 7.4, 150 mM NaCl, 0.5 mM TCEP-HCl, 25 °C, 1:1 binding model
[6] = molecular target: T3, D-Abl SH2 domain (synthetic …); assay: ITC
[7] = molecular target: T4, biotinylated synthetic D-Abl SH2 domain (human, UniProt P00519-2 141-240, all residues in D-configuration; biotin (position not given)); assay: FACS; yeast surface display
T4 chain: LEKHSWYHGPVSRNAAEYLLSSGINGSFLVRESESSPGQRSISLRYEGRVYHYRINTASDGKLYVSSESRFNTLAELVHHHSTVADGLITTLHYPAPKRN

[8] = molecular target: the molecule itself; assay: crystal structure; L-DAM21 with D-Abl SH2 A198C; 0.16 M ammonium sulfate, 0.08 M sodium acetate pH 4.6, 20% PEG 4000, 20% glycerol; 100 K
[9] = molecular target: T3, D-Abl SH2 domain (synthetic …); assay: ITC

B1: synthetic D-DAM27-XTEN (mirror-image monobody) (designed binder)
chain: AASSVPTKLEVVAATPTSLLISWDAPAVTVDHYVITYGETGGGGGSQEFEVPGSKSTATISGLKPGVDYTITVYAYEFYSGEYSHFSPISINYRT
modifications: all residues in D-configuration; biotin at the N-terminus
[1]
  Kd: 0.125 µM
[2]
  stoichiometry N: 1

B2: D-pY peptide 5-carboxyfluoresceine-EPQpYEEIPIYLK-CONH2 in D-configuration (peptide)
peptide: 5FAM-[dE][dP][dQ][dpY][dE][dE][dI][dP][dI][dY][dL][dK]-NH2
notes: also called D-pYEEI peptide; D-phospho tyrosine (pY) peptide; source: synthetic peptide, bought: Peptide Synthetics (UK)
[3]
  Kd: ~5 µM

B3: synthetic L-DAM27-XTEN (designed binder)
chain: ASSVPTKLEVVAATPTSLLISWDAPAVTVDHYVITYGETGGGGGSQEFEVPGSKSTATISGLKPGVDYTITVYAYEFYSGEYSHFSPISINYRTAEGPSTAEGPSTAEGPST
modifications: biotin at the N-terminus
[4]
  Kd: 0.128 µM
[5]
  stoichiometry N: 1

B4: recombinant L-DAM27-XTEN (designed binder)
chain: ASSVPTKLEVVAATPTSLLISWDAPAVTVDHYVITYGETGGGGGSQEFEVPGSKSTATISGLKPGVDYTITVYAYEFYSGEYSHFSPISINYRTAEGPSTAEGPSTAEGPST
[4]
  Kd: 0.0976 µM
[5]
  stoichiometry N: 1

B5: L-monobody DAM21 (recombinant) (designed binder)
chain: ASSVPTKLEVVAATPTSLLISWDAPAVTVDHYVITYGETGGNSPVQEFTVPGSKSTATISGLKPGVDYTITVYASDYYDGEISWYSPISINYRT
[6]
  Kd: 0.0119 µM

B6: monobody DAM21 displayed on yeast (designed binder)
chain: ASSVPTKLEVVAATPTSLLISWDAPAVTVDHYVITYGETGGNSPVQEFTVPGSKSTATISGLKPGVDYTITVYASDYYDGEISWYSPISINYRT
[7]
  Kd: 0.02 µM

B7: monobody DAM27 displayed on yeast (designed binder)
chain: ASSVPTKLEVVAATPTSLLISWDAPAVTVDHYVITYGETGGGGGSQEFEVPGSKSTATISGLKPGVDYTITVYAYEFYSGEYSHFSPISINYRT
[7]
  Kd: 0.024 µM

B8: L-monobody DAM27 (recombinant) (designed binder)
chain: ASSVPTKLEVVAATPTSLLISWDAPAVTVDHYVITYGETGGGGGSQEFEVPGSKSTATISGLKPGVDYTITVYAYEFYSGEYSHFSPISINYRT
[6]
  Kd: 0.0723 µM

B9: D-Abl SH2 A198C (synthetic D-Abl SH2 domain not desulfurized, cysteine at position 198) (domain or fragment, human)
chain: LEKHSWYHGPVSRNAAEYLLSSGINGSFLVRESESSPGQRSISLRYEGRVYHYRINTCSDGKLYVSSESRFNTLAELVHHHSTVADGLITTLHYPAPKRN
modifications: all residues in D-configuration
notes: SH2 domain of human ABL1 (BCR::ABL1); Found as a disulfide-bridged (Cys198) dimer in both crystal structures; also called D-SH2
[8]
  binding result: binds

B10: L-monobody DAM30.1 (recombinant) (designed binder)
chain: MAASSVPTKLEVVAATPTSLLISWDAPAVTVDHYVITYGETGGGWYGQEFEVPGSKSTATISGLKPGVDYTITVYAYEFYSGEYSHFSPISINYRT
[9]
  Kd: 0.0903 µM

B11: L-monobody DAM30.2 (recombinant) (designed binder)
chain: MAASSVPTKLEVVAATPTSLLISWDAPAVTVDHYVITYGETGAYVSGPQEFTVPGSKSTATISGLKPGVDYTITVYAYEFYSGEYSHFSPISINYRT
[9]
  Kd: 0.189 µM

B12: L-monobody DAM28 (recombinant) (designed binder)
chain: MAASSVPTKLEVVAATPTSLLISWDAPAVTVDHYVITYGETGGNSPVQEFTVPGSKSTATISGLKPGVDYTITVYAYEYWEYEYSSYSPISINYRT
[9]
  Kd: 0.0589 µM

B13: monobody DAM28 displayed on yeast (designed binder)
chain: MAASSVPTKLEVVAATPTSLLISWDAPAVTVDHYVITYGETGGNSPVQEFTVPGSKSTATISGLKPGVDYTITVYAYEYWEYEYSSYSPISINYRT
[7]
  Kd: 0.068 µM

B14: L-monobody DAM26 (recombinant) (designed binder)
chain: MAASSVPTKLEVVAATPTSLLISWDAPAVTVDHYVITYGETGGNSPVQEFTVPGSKSTATISGLKPGVDYTITVYAYEFYSGEYSHFSPISINYRT
[9]
  Kd: 0.249 µM

B15: monobody DAM26 displayed on yeast (designed binder)
chain: MAASSVPTKLEVVAATPTSLLISWDAPAVTVDHYVITYGETGGNSPVQEFTVPGSKSTATISGLKPGVDYTITVYAYEFYSGEYSHFSPISINYRT
[7]
  Kd: 0.032 µM
